Assay results taken from US20120316071A1 (published 2012).
Residue numbers refer to the chain shown, from its start. Numbers in names are those of the source.

B1: Fab VH1-46_IGHD6-6*01_IGHJ1*01 S102A/S103P/S104F/H111F G55A & L6_IGKJ1*01 (Fab, V domains shown)
VH: QVQLVQSGAEVKKPGASVKVSCKASGYTFTSYYMHWVRQAPGQGLEWMGIINPSAGSTSYAQKFQGRVTMTRDTSTSTVYMELSSLRSEDTAVYYCAREEYAPFSAEYFQFWGQGTLVTVSS
VL: not shown
notes: Fab (CH1 with His6/Flag tags from Plasmid A, kappa CL from Plasmid C); also called APFF G55A
B2: Fab VH1-46_IGHD6-6*01_IGHJ1*01 S102A/S103P/S104F/H111F P53A & L6_IGKJ1*01 (Fab, V domains shown)
VH: B1 VH with P53A, A55G
VL: not shown
notes: Fab (CH1 with His6/Flag tags from Plasmid A, kappa CL from Plasmid C); also called APFF P53A
B3: Fab VH1-46_IGHD6-6*01_IGHJ1*01 S102A/S103P/S104F/H111F I50A & L6_IGKJ1*01 (Fab, V domains shown)
VH: B1 VH with I50A, A55G
VL: not shown
notes: Fab (CH1 with His6/Flag tags from Plasmid A, kappa CL from Plasmid C); also called APFF I50A
B4: Fab VH1-46_IGHD6-6*01_IGHJ1*01 S102A/S103P/S104F/H111F T58A & L6_IGKJ1*01 (Fab, V domains shown)
VH: B1 VH with A55G, T58A
VL: not shown
notes: Fab (CH1 with His6/Flag tags from Plasmid A, kappa CL from Plasmid C); also called APFF T58A
B5: Fab VH1-46_IGHD6-6*01_IGHJ1*01 S102A/S103P/S104F/H111F S57A & L6_IGKJ1*01 (Fab, V domains shown)
VH: B1 VH with A55G, S57A
VL: not shown
notes: Fab (CH1 with His6/Flag tags from Plasmid A, kappa CL from Plasmid C); also called APFF S57A
B6: Fab VH1-46_IGHD6-6*01_IGHJ1*01 S102A/S103P/S104F/H111F I51A & L6_IGKJ1*01 (Fab, V domains shown)
VH: B1 VH with I51A, A55G
VL: not shown
notes: Fab (CH1 with His6/Flag tags from Plasmid A, kappa CL from Plasmid C); also called APFF I51A
B7: Fab VH1-46_IGHD6-6*01_IGHJ1*01 S102A/S103P/S104F/H111F G56A & L6_IGKJ1*01 (Fab, V domains shown)
VH: B1 VH with A55G, G56A
VL: not shown
notes: Fab (CH1 with His6/Flag tags from Plasmid A, kappa CL from Plasmid C); also called APFF G56A
B8: Fab VH1-46_IGHD6-6*01_IGHJ1*01 S102A/S103P/S104F/H111F N52A & L6_IGKJ1*01 (Fab, V domains shown)
VH: B1 VH with N52A, A55G
VL: not shown
notes: Fab (CH1 with His6/Flag tags from Plasmid A, kappa CL from Plasmid C); also called APFF N52A

biological target: T1, rHuman IGF-1 sR, CF (R&D Systems Cat#391-GR) (human, UniProt P08069 31-932); assay: ECL multispot (MSD) assay, antigen spotted on plate, 10 nM Fab;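 further: bound Fab detected with a TAG-labelled detection antibody (1 h, 20 °C), electrochemiluminescence read and compared with each well's blank, signal/blank of 4 or above scored as hit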
T1 construct: Bought soluble receptor; also called insulin-like growth factor-1 soluble receptor

Binder	ECL signal
B1	392
B2	374
B3	247
B4	271
B5	417
B6	383
B7	422
B8	362

biological target: T2, rHuman CD44/Fc Chimera, CF (R&D Systems Cat#3660-CD) (human, UniProt P16070 21-220); assay: as above
T2 construct: Bought recombinant Fc chimera; Fc part of the bought chimera not given

Binder	ECL signal
B1	365
B2	378
B3	326
B4	318
B5	439
B6	391
B7	330
B8	362

biological target: T3, rHuman Notch-1/Fc Chimera, CF (R&D Systems Cat#3647-TK) (human, UniProt P46531 19-526); assay: as above
T3 construct: Bought recombinant Fc chimera; Fc part of the bought chimera not given

Binder	ECL signal
B1	381
B2	393
B3	297
B4	289
B5	365
B6	312
B7	331
B8	383

biological target: T4, rHuman EGF R/Fc Chimera, CF (R&D Systems Cat#344-ER) (human, UniProt P00533 25-645); assay: as above
T4 construct: Bought recombinant Fc chimera; also called epidermal growth factor receptor; Fc part of the bought chimera not given

Binder	ECL signal
B1	217
B2	439
B3	402
B4	384
B5	302
B6	373
B7	355
B8	340

biological target: T5, rHuman HGF R/c-MET/Fc Chimera, CF (R&D Systems Cat#358-MT/CF) (human, UniProt P08581 25-932); assay: as above
T5 construct: Bought recombinant Fc chimera; also called HGF R/Fc; hepatocyte growth factor receptor; Fc part of the bought chimera not given
T5 sequence (P08581 25-932, change not shown): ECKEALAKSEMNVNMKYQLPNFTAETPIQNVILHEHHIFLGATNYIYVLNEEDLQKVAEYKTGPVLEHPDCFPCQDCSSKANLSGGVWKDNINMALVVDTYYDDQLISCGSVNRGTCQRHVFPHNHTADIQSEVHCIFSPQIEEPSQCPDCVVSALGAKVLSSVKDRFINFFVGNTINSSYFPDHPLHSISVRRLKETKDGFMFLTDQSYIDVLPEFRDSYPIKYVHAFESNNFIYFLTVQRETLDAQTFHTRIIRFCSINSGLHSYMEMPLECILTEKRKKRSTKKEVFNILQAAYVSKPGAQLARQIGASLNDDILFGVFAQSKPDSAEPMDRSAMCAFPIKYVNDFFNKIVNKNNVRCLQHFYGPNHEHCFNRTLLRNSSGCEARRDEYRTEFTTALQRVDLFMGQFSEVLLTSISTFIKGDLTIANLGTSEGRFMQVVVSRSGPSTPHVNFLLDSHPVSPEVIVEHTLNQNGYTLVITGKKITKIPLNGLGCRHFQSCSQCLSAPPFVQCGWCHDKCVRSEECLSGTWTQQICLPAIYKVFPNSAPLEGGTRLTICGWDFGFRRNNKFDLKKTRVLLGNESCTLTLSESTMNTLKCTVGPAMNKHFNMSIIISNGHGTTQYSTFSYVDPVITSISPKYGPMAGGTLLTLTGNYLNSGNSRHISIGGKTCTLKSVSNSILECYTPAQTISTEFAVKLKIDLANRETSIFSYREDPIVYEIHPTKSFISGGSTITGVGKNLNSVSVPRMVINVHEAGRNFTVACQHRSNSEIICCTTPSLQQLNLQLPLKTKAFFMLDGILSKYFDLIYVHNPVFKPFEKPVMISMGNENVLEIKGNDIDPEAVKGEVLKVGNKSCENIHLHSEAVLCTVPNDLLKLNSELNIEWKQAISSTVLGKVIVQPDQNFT

Binder	ECL signal
B1	221
B2	337
B3	301
B4	304
B5	388
B6	440
B7	313
B8	369

biological target: T6, rHuman ErbB2/Fc Chimera, CF (R&D Systems Cat#1129-ER) (human, UniProt P04626 23-652); assay: as above
T6 construct: Bought recombinant Fc chimera; also called human epidermal growth factor 2 receptor; Fc part of the bought chimera not given

Binder	ECL signal
B1	474
B2	203
B3	369
B4	320
B5	304
B6	344
B7	279
B8	378

biological target: T7, Recombinant Human DLL4 (R&D Systems Cat#1506-D4/CF) (human, UniProt Q9NR61 27-524); assay: as above
T7 construct: Bought recombinant protein; also called delta-like protein 4; rHuman DLL4

Binder	ECL signal
B1	14500
B2	151000
B3	2670
B4	47400
B5	112000
B6	159000
B7	189000
B8	169000

biological target: T8, rHuman P-Cadherin/Fc Chimera, CF (R&D Systems Cat#861-PC) (human, UniProt P22223 108-654); assay: as above
T8 construct: Bought recombinant Fc chimera; Fc part of the bought chimera not given

Binder	ECL signal
B1	426
B2	390
B3	313
B4	294
B5	232
B6	144
B7	214
B8	353

biological target: T9, rHuman Erythropoietin R/Fc Chimera, CF (R&D Systems Cat#963-ER) (human, UniProt P19235 25-250); assay: as above
T9 construct: Bought recombinant Fc chimera; also called EPO R; EPO R/Fc; Fc part of the bought chimera not given
T9 sequence (looked up): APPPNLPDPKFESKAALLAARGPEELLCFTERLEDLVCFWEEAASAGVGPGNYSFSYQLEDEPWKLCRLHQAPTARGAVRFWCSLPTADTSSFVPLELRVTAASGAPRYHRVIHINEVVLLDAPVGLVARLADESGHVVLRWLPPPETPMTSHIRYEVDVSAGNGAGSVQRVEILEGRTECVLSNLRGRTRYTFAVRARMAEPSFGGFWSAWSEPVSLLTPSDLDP

Binder	ECL signal
B1	305
B2	427
B3	252
B4	329
B5	477
B6	380
B7	466
B8	468
